# Laboratory results reported in US20260015426A1 (23ANDME, published 2026).
# Numbering of substitutions follows the chain as printed. Names and notes keep the numbering of the source.
# T1: human IL1RAP (hu-IL1RAP) on human cells (human, UniProt Q9NPH3 21-570)
# T1 sequence: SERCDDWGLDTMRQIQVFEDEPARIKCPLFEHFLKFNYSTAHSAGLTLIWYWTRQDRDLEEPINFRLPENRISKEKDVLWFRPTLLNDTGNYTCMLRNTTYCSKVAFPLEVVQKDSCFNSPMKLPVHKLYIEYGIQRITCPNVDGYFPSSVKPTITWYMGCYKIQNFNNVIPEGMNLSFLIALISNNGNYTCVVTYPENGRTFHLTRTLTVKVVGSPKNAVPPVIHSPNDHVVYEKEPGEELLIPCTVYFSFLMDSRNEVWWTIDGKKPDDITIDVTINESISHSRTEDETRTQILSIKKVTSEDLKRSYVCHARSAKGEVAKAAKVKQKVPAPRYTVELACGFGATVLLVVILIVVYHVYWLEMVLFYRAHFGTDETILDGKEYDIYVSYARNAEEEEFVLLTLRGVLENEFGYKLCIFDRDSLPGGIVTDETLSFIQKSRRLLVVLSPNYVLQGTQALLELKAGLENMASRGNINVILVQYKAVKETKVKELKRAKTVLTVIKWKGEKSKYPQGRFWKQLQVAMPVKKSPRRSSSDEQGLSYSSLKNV
# T2: hu-M-IL1RAP construct, positions S21-T367 (extracellular domain of the membrane form of human IL1RAP) (human, UniProt Q9NPH3 21-367)
# T2 construct: Biotinylated when captured on the Biacore chip
# T2 sequence: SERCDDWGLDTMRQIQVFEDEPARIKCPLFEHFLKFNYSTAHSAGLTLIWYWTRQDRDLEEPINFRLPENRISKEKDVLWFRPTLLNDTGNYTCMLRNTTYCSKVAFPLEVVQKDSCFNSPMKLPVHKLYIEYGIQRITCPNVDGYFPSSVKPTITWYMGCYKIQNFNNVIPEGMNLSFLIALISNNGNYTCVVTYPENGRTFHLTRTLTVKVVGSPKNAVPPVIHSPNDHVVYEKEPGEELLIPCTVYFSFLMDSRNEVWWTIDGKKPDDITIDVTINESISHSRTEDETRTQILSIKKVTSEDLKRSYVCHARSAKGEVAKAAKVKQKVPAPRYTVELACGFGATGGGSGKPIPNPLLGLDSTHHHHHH
# B1: Parent Fab (Fab of h11C5_C59Y/A43S) (Fab, V domains shown)
# VH: EVQLVESGGGLVQPGGSLRLSCAASGFTFSNYAMSWVRQAPGKGLEWVATVTEGGDYNYYLDDVKGRFTISRDNAKNSLYLQMNSLRAEDTAVYYCARDRWPYFFDYWGQGTLVTVSS
# VL: DIQMTQSPSSLSASVGDRVTITCRASENIYSNLAWYQQKPGKSPKLLVYGAKNLADGVPSRFSGSGSGTDYTLTISSLQPEDFATYYCQHFWTTPRTFGGGTKVEIK
# notes: Fab with 8xHis tag; also called parental Fab of h11C5_C59Y/A43S
# B2: K10/H2 Fab (VL-A51Y, VH-R96D) (Fab, V domains shown)
# VH: B1 VH with R100D
# VL: B1 VL with A51Y
# notes: Fab with 8xHis tag
# B3: K17 Fab (VL A51Y/W92K) (Fab, V domains shown)
# VH: B1 VH
# VL: B1 VL with A51Y, W92K
# notes: Fab with 8xHis tag
# B4: H5 Fab (VH V51S/G54H) (Fab, V domains shown)
# VH: B1 VH with V51S, G55H
# VL: B1 VL
# notes: Fab with 8xHis tag
# B5: K11 Fab (VL A51R/K52G) (Fab, V domains shown)
# VH: B1 VH
# VL: B1 VL with A51R, K52G
# notes: Fab with 8xHis tag
# B6: K5 Fab (VL Y30W/W92L) (Fab, V domains shown)
# VH: B1 VH
# VL: B1 VL with Y30W, W92L
# notes: Fab with 8xHis tag
# B7: K6 Fab (VL Y30W/W92F) (Fab, V domains shown)
# VH: B1 VH
# VL: B1 VL with Y30W, W92F
# notes: Fab with 8xHis tag
# B8: K18 Fab (VL A51Y/L33G) (Fab, V domains shown)
# VH: B1 VH
# VL: B1 VL with L33G, A51Y
# notes: Fab with 8xHis tag
# B9: K10/H2 IgG (VL-A51Y, VH-R96D) (antibody, V domains shown)
# VH: B1 VH with R100D
# VL: B1 VL with A51Y
# B10: K13 IgG (VL-A51Y/W92I) (antibody, V domains shown)
# VH: B1 VH
# VL: B1 VL with A51Y, W92I
# B11: Parent IgG Ab (full-length IgG of h11C5_C59Y/A43S) (antibody, V domains shown)
# VH: B1 VH
# VL: B1 VL
# B12: K10 IgG (VL-A51Y) (antibody, V domains shown)
# VH: B1 VH
# VL: B1 VL with A51Y
# B13: K10/H3 IgG (VL-A51Y, VH-V51S) (antibody, V domains shown)
# VH: B1 VH with V51S
# VL: B1 VL with A51Y
# B14: K17 IgG (VL-A51Y/W92K) (antibody, V domains shown)
# VH: B1 VH
# VL: B1 VL with A51Y, W92K
# B15: H8 Fab (VH F29S/E52aV/R96A) (Fab, V domains shown)
# VH: B1 VH with F29S, E53V, R100A
# VL: B1 VL
# notes: Fab with 8xHis tag
# B16: H10 Fab (VH F29S/D55G/R96S) (Fab, V domains shown)
# VH: B1 VH with F29S, D56G, R100S
# VL: B1 VL
# notes: Fab with 8xHis tag
# B17: H7 Fab (VH F29E/N57G/R96A) (Fab, V domains shown)
# VH: B1 VH with F29E, N58G, R100A
# VL: B1 VL
# notes: Fab with 8xHis tag
# B18: H12 Fab (VH M34V) (Fab, V domains shown)
# VH: B1 VH with M34V
# VL: B1 VL
# notes: Fab with 8xHis tag
# B19: H11 Fab (VH W97F) (Fab, V domains shown)
# VH: B1 VH with W101F
# VL: B1 VL
# notes: Fab with 8xHis tag
# B20: H9 Fab (VH G54V/R96A) (Fab, V domains shown)
# VH: B1 VH with G55V, R100A
# VL: B1 VL
# notes: Fab with 8xHis tag
# B21: K13/H12 Fab (VL-A51Y/W92I, VH-M34V) (Fab, V domains shown)
# VH: B1 VH with M34V
# VL: B1 VL with A51Y, W92I
# notes: Fab with 8xHis tag
# Target: T1, human IL1RAP (hu-IL1RAP) on human cells
# Assay: cell-based or functional assay
Binder,"HEK-Blue, IL-1β, % inhibition at 100 nM (Fab) [%]","HEK-Blue, IL-1β, IC50 (Fab) [nM]","HEK-Blue, IL-33, % inhibition at 100 nM (Fab) [%]","HEK-Blue, IL-33, IC50 (Fab) [nM]","HEK-Blue, IL-36α, % inhibition at 100 nM (Fab) [%]","HEK-Blue, IL-36α, IC50 (Fab) [nM]"
B1,96,7.45,77,26.4,96,5.09
B2,100,0.552,99,2.17,100,0.481
B3,100,1.59,96,5.38,100,1.27

# Target: T2, hu-M-IL1RAP construct, positions …
# Assay: SPR, Fab analyte, 25 C
# Description: (§1) Surface plasmon resonance (SPR) analysis was used to determine binding affinity for hu-M-IL1RAP of the purified Fabs containing the selected single, double, and triple mutations in either the VL or VH regions using a BIACORE™ 8K instrument. […] For kinetics measurements, 5 nM biotinylated hu-M-IL1RAP was captured at 10 μL/min to achieve ˜50 response units in the second flow cell (FC2). FC1 was kept as a reference. […] The sensorgrams were recorded and subjected to reference and buffer subtraction before data analysis with the BIACORE® 8K Evaluation Software (version 1.1.1.7442). Association rates (kₒₙ) and dissociation rates (koff) were calculated using a simple one-to-one Langmuir binding model. The equilibrium dissociation constant (KD) was calculated as the ratio of koff/kₒₙ.
Binder,apparent Kd (pooled screen) [nM],apparent koff (pooled screen) [s⁻¹],apparent kon (pooled screen) [M⁻¹ s⁻¹],Kd [nM],koff [s⁻¹],kon [M⁻¹ s⁻¹]
B1,0.337,0.000468,1.39e+06,,,
B3,,,,0.00637,3.58e-05,5.63e+06
B4,,,,0.05,0.000235,4.71e+06
B5,,,,0.0212,0.000102,4.83e+06
B6,,,,0.0524,0.000268,5.11e+06
B7,,,,0.0147,6.25e-05,4.25e+06
B8,,,,0.0189,0.000123,6.52e+06

# Target: T1, human IL1RAP (hu-IL1RAP) on human cells
# Assay: cell-based or functional assay
# Remark: another data set of the same source
Binder,"HEK-Blue, IL-1β, % inhibition at 100 nM (IgG) [%]","HEK-Blue, IL-1β, IC50 (IgG) [nM]","HEK-Blue, IL-33, % inhibition at 100 nM (IgG) [%]","HEK-Blue, IL-33, IC50 (IgG) [nM]","HEK-Blue, IL-36α, % inhibition at 100 nM (IgG) [%]","HEK-Blue, IL-36α, IC50 (IgG) [nM]"
B9,100,0.285,100,1.06,100,0.34
B10,100,0.332,100,1.77,100,0.303
B11,99,0.363,99,2.04,89,0.34
B12,100,0.23,100,1.37,100,0.247
B13,100,0.177,99,0.354,100,0.28
B14,100,0.468,99,2.74,100,0.495

# Target: T2, hu-M-IL1RAP construct, positions …
# Assay: SPR, Fab analyte, 37 C
# Description: as §1
Binder,apparent Kd (pooled screen) [nM],apparent koff (pooled screen) [s⁻¹],apparent kon (pooled screen) [M⁻¹ s⁻¹],Kd [nM],koff [s⁻¹],kon [M⁻¹ s⁻¹]
B1,0.268,0.00163,6.08e+06,,,
B15,,,,0.17,0.000899,5.27e+06
B16,,,,0.131,0.000702,5.34e+06
B3,,,,0.0441,0.000159,3.6e+06
B17,,,,0.0998,0.000511,5.13e+06
B18,,,,0.305,0.00174,5.7e+06
B19,,,,0.46,0.00441,9.58e+06
B20,,,,0.0811,0.000401,4.94e+06

# Target: T2, hu-M-IL1RAP construct, positions …
# Assay: SPR, Fab analyte, 37 C
# Remark: another data set of the same source
# Description: as §1
Binder,Kd [nM],koff [s⁻¹],kon [M⁻¹ s⁻¹]
B2,0.0201,0.000111,5.54e+06
B21,0.0363,0.000178,4.9e+06
